Measurements: the nanobody polyreactivity screen of Harvey et al. (2022)

Assay: yeast display, Sf9 membrane polyspecificity reagent, FACS + sequencing; frameworks hold sequencing errors
Outline: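 Nanobodies from a synthetic yeast display library (Saccharomyces cerevisiae BJ5465), induced 36–48 hours with galactose, were stained 1 hour at 4 °C with 10% biotinylated, detergent-solubilized Sf9 membrane reagent, enriched on streptavidin microbeads, then FACS-sorted. Anti-HA (expression) and streptavidin (reagent binding) fluorescence set low and high (top ~1%) gates. Polyreactivity labels come from the gate of origin. Genes were colony-PCR amplified, MiSeq 2 × 250 sequenced and filtered by CDR length.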

Sequence | polyreactivity (PSR sort gate)
QVQLVESGGCLVQAGCSLRLSCAASGGTFDVNAMGWYRQAPGKERELVAAITWSGGNTYYADSVKGRFTISRDNAKNTVYLQMNSLKPEDTAVYYCATDFSPVYYTRYDYWGQGTQVTVSS | low polyreactivity
QVQLVESGGCLVQAGCSLRLSCAASGRIFSTYAMGWYRQAPGTERELVAAINKIGGSTYFADSVKGRFTISRDNAKNTVYLQMNSLKPEDTAVYYCAADAPYYPVRRYYYWGQGTQVTVSS | low polyreactivity
QVQLVESGGCLVQAGGRLRISSAASGSIFAINDIGWYRQAPGKERELVAAIRSGGRTYYADSVKGRFTISRDNAKNTVYLQMNSLKPEYTAVYYCNAGGKWIGSDNWGQGTQVTVSS | high polyreactivity
QVQLVESGGCLVQAGGRLRLSCAASGFIFHGYAMGWYRPAPGKERELVAAISSRGGTTYYADSVQGRFTISRDKAKTTVYLQMNSLKPEDSAVDDCAADKIRYITSPVPFYYWGQGTQVTVSS | high polyreactivity
QVQLVESGGCLVQAGGRLRLSSAASGGTFTFYAMGWYRQAPGKERELVATINWSGGSTYYADSVKGRFTISRDNAKNTVYLQMNSLKPEDTAVYYCNAAWPYKSVEYWGQGTQVTVSS | low polyreactivity
QVQLVESGGCLVQAGGSLRFSCAASGSTFGWYAMGWYRHAPGKERELVAAITSVGSTYYADYVKGRFRISRDNAKNTVYLQMNSLKPEDTAVYYCAKRFGSGWAWFGYWGQGTQVTVSS | low polyreactivity
QVQLVESGGCLVQAGGSLRLICAASGIILTQNAMGWYRQAPGKERELVAAITESGARTYYADSVKGRFTISRDNAKNTVYLQMNSLKPEDTAVYYCAAHTRTSGHNYWGQGTQVTVSS | low polyreactivity
QVQLVESGGCLVQAGGSLRLIRDASGFIIRPYAMGWYRQAPGKEREFVAAITGGGSTYYADSVKGRFTISRDNAKNTVYLQMNSLKPEDTAVYYCNADRRRRSGGFAGWHFQRKDYWGQGTQVTVSS | low polyreactivity
QVQLVESGGCLVQAGGSLRLNCAASGGTFVNNDMGWYRQAPGKERELVAAIRSAGTTYYADSVKGRFTISRDNAKNSVYLQMNSLKPVDTAVYYCNADTTGYWSYGFQYYGEDYWGQGTQVTVSS | low polyreactivity
QVQLVESGGCLVQAGGSLRLSCAASGFTFGRNYMGWYRQAPGKEREFVASISGSGGRTYYADSVKGRFTISRDNAKNTVYLQMNSLQPEDTAVYYCAAYRYSAYLYWDEYGGQGTQVTVSS | high polyreactivity
QVQLVESGGCLVQAGGSLRLSCAASGFTFSSNAMGWYRQAPGKERELVAAISFNSTSTYYADSVKGRFTISRDNAKNTVYLQMNSLKPEDTAVYYCAADVPRVQSEPEYDYWGQGTQVTVSS | low polyreactivity
QVQLVESGGCLVQAGGSLRLSCAASGFTFTKYAMGWYRQAPGQERELVAAINRSGRTYYADSVKGRFTISRDNAKNTVYLQMNSLKPEDTAVYYCAADTRYQYSAYDYWGQGTQVTVSS | high polyreactivity
QVQLVESGGCLVQAGGSLRLSCAASGIIFGRYTMGWYRQAPGKERELVAAITSSGITYYADSVKGRVTISRDNAKNTVYLQMNSLKPEDTAVYYCNADYSSPGYYWPYDYWGQGTQVSVSS | low polyreactivity
QVQLVESGGCLVQAGGSLRLSCAASGIIFYYYAMGWSRQAPGKEREFVAGIRWSSGSTYYADSVKGRFTISRDNAKNTVYLQMNSLKPEDTAVYYCAAAYLSWYGGYYYWGQGSQVTVSS | low polyreactivity
QVQLVESGGCLVQAGGSLRLSCAASGITFPGNAMGWYRPATGKERELVAVIRKSGTSTYYADSVKGRFTISRDNAKNTVYLQMISLIPEDTAVYYCAAGGPSTLDDYWGHGTQVTVSS | low polyreactivity
QVQLVESGGCLVQAGGSLRLSCAASGITYLEYAMGWYIQAPGKERELVATINSGGSTNYADSVKGRFTISRDNAKNTVYLQMNSLKPEDTAVYYCAAVVSDYVWRYEYWGQGTQVTVSS | low polyreactivity
QVQLVESGGCLVQAGGSLRLSCAASGLIFAEYAMGWYRQAPGKERELVARITSGGSTDYADSVKGRFTISRDNAKNTVFLQMNSLKPEDTAVYYCAAAYAYWGQGTQVTVSS | low polyreactivity
QVQLVESGGCLVQAGGSLRLSCAASGLIFLGYAMGWYRQAPGKERELVASIRTGGSTSYADSVKGRFTISRDNAKNTVYLQMYSLKPEDTAVYYCAADRGRPNLPGDYWGQGTQVTVSS | low polyreactivity
QVQLVESGGCLVQAGGSLRLSCAASGLTFRGYAKGWYRPAPGKERELVAAITSSAGRTNYADSVKGRFTISRDNAKNTVYLQMNSLNPEDTAVYYCAAAHSYTTRWGYYKFNYWGQGTQVSVSS | high polyreactivity
QVQLVESGGCLVQAGGSLRLSCAASGLTFSRYAMGWYRQAPGKERELVASSSQGGGSTYYADSVKGRFTISRDNAKITVYFQMNSLIPEDTAVYYCAASWYYSLQRYGYWGQGTQETVSS | high polyreactivity
QVQLVESGGCLVQAGGSLRLSCAASGNTFRRNVMGWYRQAPGKERELVPAINRGGSTTYADSVKGRFTISRDNAMNTVYLQMNSLKPEDTAVYYCNAEKRGQSYRFDYWGQGSQVTVSS | high polyreactivity
QVQLVESGGCLVQAGGSLRLSCAASGRIFAYNAMGWYRQAPGKESELVAAITRGGSTNYADSVKGRFTISRDNAKNTVYLQMNSLKPEDTAVYYCAARRVDTRVHVRYRYYYWGQGTQVTVSS | high polyreactivity

Sequence | polyreactivity (PSR sort gate)
QVQLVESGGCLVQAGGSLRLSCAASGRIFHSNAMGWYRQAPGKERELVAAISTAGSTYYADSVKGRFTISRDNAKNTVYLQMNSLKPEDTAVYYCNAESPWWWEYDSWGQGTQVTVSS | high polyreactivity
QVQLVESGGCLVQAGGSLRLSCAASGRIFVYYAMGWYRQAPGKERELVAGISLSGGSTYYADSVKGRFTISRDNAKNTVYLQMYSLKPEDTAVYDSAIEVNAGYYVWYDYWGQGTQVTVSS | low polyreactivity
QVQLVESGGCLVQAGGSLRLSCAASGRSFRLYAMGGYRQAPGKERELVAAITRGGRTNYADSVKGRFTISRDNAKNTVYLQMNSLKPEDTAVYYCAARYVERHTDYYYWGQGTQVTVSS | low polyreactivity
QVQLVESGGCLVQAGGSLRLSCAASGRTFDVYAMGWYRQAPGKERELVATIRSDGSTTYADSVKGRFTISRDNAKNTVYLQMNSLKPEDTAVYYCAADFRSGFSSSTTPVQSDWGQGTQVTVSS | low polyreactivity
QVQLVESGGCLVQAGGSLRLSCAASGRTFLANAMGWYRQAPGKERELVAAITWSGGRTNYADSVKGRFTISRDNAKNTVYLQMNSLKPEDTAVYYCAADIFYEQVVGGTDVGYHDFDYWGQGTQVTVSS | low polyreactivity
QVQLVESGGCLVQAGGSLRLSCAASGRTFYFYTMGWYRQAPGKERQLVATIRWSAGSTYYADSVKGRFTISRDNAKNTVYLQMNSLKPEDTAVYYCNADPYVYSSWQYGYWGQGTQVTVSS | high polyreactivity
QVQLVESGGCLVQAGGSLRLSCAASGSIFDGNTMGWYRQAPGKERELVAAITWSGGSTYYADSVKGRFTISRDNAKNTVYLQMNSLKPEDTAVYYCAAEYWDSDPYDYWGQGTQVTVSS | low polyreactivity
QVQLVESGGCLVQAGGSLRLSCAASGSIFKWYAMGWYRQAPGKERELVAAITRGGSTNYADSVQGRFTISRDNAKNTVYLQMNSLKPEDTAVYYCNAVYTYRSGFGYWGQGTQVTVSS | low polyreactivity
QVQLVESGGCLVQAGGSLRLSCAASGSIFPPYAMGWYIPAPGKERELVAAISRRGGSTYYADSVKGRFTISRDNAKNTVYLQMNSLKPEDTAVYYCAARGGQMEYWGQGTQVTVSS | high polyreactivity
QVQLVESGGCLVQAGGSLRLSCAASGSIFPWYAMGWYRQAPGKERELVADISYSGSGTYYADSVKGRFAISRDNGKNNVYLQMTSLKPEDSAVYYCNAQRAEWYPVGRYEYWGQGSQVTVSS | low polyreactivity
QVQLVESGGCLVQAGGSLRLSCAASGSIFRYYAMGWYRQAPGKDRELVAAISWSSGRTYYADSVKGRFTISRDNAKNTVYLQMNSLKPEDTAVYYCAAGVPGYPRYEYDYWGQGTQVTVSS | high polyreactivity
QVQLVESGGCLVQAGGSLRLSCAASGSIFSANAMGWYRQAPGKETELVAAITRGGSTNYADSVKGRFTIARDNAKNTVYLQMNSLKPEDTAVYYCNDEPDPYSSGRVRRDYDYWGQGTQVTVSS | low polyreactivity
QVQLVESGGCLVQAGGSLRLSCAASGSIFVSYAMGWYRQAPGTERELVAAITGRTGSTYYADSVKGRFTISRDNAQNTVYLQMNSLKPEDTEVYYCAARHKPHHRYDYWGQGTQVTVSS | low polyreactivity
QVQLVESGGCLVQAGGSLRLSCAASGSIFYSYAMGWYRQAPGKEMELVADISSDGSTNYADSVKGRFTISRDNAKNTVYLQMNSLKPEDTAVYYCAKKPSSARYVTIGFDYWGQGTQVTVSS | low polyreactivity
QVQLVESGGCLVQAGGSLRLSCAASGSTFDYYMGWYRQAPGKERELVAAITYSGGSTYYADSVKGRFTISRDNAKNSVYLQMNSLNPEDTAVYYCAKDRSTFDDFYSNYYWGQGTQVTVSS | low polyreactivity
QVQLVESGGCLVQAGGSLRLSCAASGSTFENYAMGWYRPAPGKERELVATISIDGRTNYADSVKGRFTISRDNAKNTVFLQMNSLKPEDTGVYYCAARPYWRHRYDYWGQGTQVTVSS | low polyreactivity
QVQLVESGGCLVQAGGSLRLSCAASGSTFFSYAMGWYRQAPGKESEFVAANTYSSGRTYYADSVKGRFTISRDNAKNTVYLQMHSLKAEDSAVYSCSTPGFVWGRGYDYWGQGTHVTVSS | high polyreactivity
QVQLVESGGCLVQAGGSLRLSCAASGSTFRGNDMGWYRQAPGKEREFVAAITVSGGSTYYADSVKGRFTISRDNAKNTVYLQMNSLKPDDTAVYFCDARYLRYSSKTIQNEDYWGLGTQVTVSS | high polyreactivity
QVQLVESGGCLVQAGGSLRLSCAASGSTFSWYTMGWYRQAPGKERELVAAITRGGTTYYADSVKGRFTISRDNAKNTVYLQMNSLKPEDSAVYYCAARYSRDVRMGYWGQGTQVTVSS | high polyreactivity
QVQLVESGGCLVQAGGSLRLSCAASGSTFVKIVMGWYRQAPGKERELVAGITRGGSTYYADSVKGRFTISRDNAKNTVYLQMNSLKPEDTPVYYCAKRYAWDRDYWGQGTQVTVSS | high polyreactivity
QVQLVESGGCLVQAGGSLRLSCAASGYIFGYNAMGWYRQAPGKERELVAAISYSGGSTYYADSVKGRFTISRDNAKNTVYLQMNSLKPVDTAVYYCAAGAKWIYHYYSSLQYGYWGQGTQVTVSS | high polyreactivity
